Reference: IntAct's records for PubMed 25910212

B1: Progranulin (Homo sapiens), P28799 (parent)
chain: MWTLVSWVALTAGLVAGTRCPDGQFCPVACCLDPGGASYSCCRPLLDKWPTTLSRHLGGPCQVDAHCSAGHSCIFTVSGTSSCCPFPEAVACGDGHHCCPRGFHCSADGRSCFQRSGNNSVGAIQCPDSQFECPDFSTCCVMVDGSWGCCPMPQASCCEDRVHCCPHGAFCDLVHTRCITPTGTHPLAKKLPAQRTNRAVALSSSVMCPDARSRCPDGSTCCELPSGKYGCCPMPNATCCSDHLHCCPQDTVCDLIQSKCLSKENATTDLLTKLPAHTVGDVKCDMEVSCPDGYTCCRLQSGAWGCCPFTQAVCCEDHIHCCPAGFTCDTQKGTCEQGPHQVPWMEKAPAHLSLPDPQALKRDVPCDNVSSCPSSDTCCQLTSGEWGCCPIPEAVCCSDHQHCCPQGYTCVAEGQCQRGSEIVAGLEKMPARRASLSHPRDIGCDQHTSCPVGQTCCPSLGGSWACCQLPHAVCCEDRQHCCPAGYTCNVKARSCEKEVVSAQPATFLARSPHVGVKDVECGEGHFCHDNQTCCRDNRQGWACCPYRQGVCCADRRHCCPAGFRCAARGTKCLRREAPRWDAPLRDPALRQLL
partner: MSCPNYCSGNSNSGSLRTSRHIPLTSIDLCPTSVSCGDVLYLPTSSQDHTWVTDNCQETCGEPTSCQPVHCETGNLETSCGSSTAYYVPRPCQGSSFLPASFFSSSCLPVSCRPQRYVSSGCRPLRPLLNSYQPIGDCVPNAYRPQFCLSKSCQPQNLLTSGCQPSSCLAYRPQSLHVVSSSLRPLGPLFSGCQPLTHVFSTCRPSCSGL
B2: ATP synthase mitochondrial F1 complex assembly factor 2 (Homo sapiens), Q8N5M1 (parent)
chain: MWRSCLRLRDGGRRLLNRPAGGPSASMSPGPTIPSPARAYAPPTERKRFYQNVSITQGEGGFEINLDHRKLKTPQAKLFTVPSEALAIAVATEWDSQQDTIKYYTMHLTTLCNTSLDNPTQRNKDQLIRAAVKFLDTDTICYRVEEPETLVELQRNEWDPIIEWAEKRYGVEISSSTSIMGPSIPAKTREVLVSHLASYNTWALQGIEFVAAQLKSMVLTLGLIDLRLTVEQAVLLSRLEEEYQIQKWGNIEWAHDYELQELRARTAAGTLFIHLCSESTTVKHKLLKE
partner: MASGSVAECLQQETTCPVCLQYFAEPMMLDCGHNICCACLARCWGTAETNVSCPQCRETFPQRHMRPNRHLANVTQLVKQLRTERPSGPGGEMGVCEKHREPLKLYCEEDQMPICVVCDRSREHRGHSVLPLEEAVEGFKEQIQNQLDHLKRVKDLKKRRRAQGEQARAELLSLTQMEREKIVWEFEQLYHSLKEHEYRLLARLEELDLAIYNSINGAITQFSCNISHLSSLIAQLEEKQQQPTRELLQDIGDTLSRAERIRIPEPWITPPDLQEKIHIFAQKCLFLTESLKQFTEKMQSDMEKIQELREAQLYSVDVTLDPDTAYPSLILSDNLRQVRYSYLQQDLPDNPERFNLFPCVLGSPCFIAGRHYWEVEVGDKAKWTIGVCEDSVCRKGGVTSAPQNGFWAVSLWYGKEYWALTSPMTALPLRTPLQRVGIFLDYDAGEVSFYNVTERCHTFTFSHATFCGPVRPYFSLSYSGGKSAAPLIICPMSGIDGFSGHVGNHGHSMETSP
B3: U4/U6 small nuclear ribonucleoprotein Prp3 (Homo sapiens), O43395 (parent)
chain: MALSKRELDELKPWIEKTVKRVLGFSEPTVVTAALNCVGKGMDKKKAADHLKPFLDDSTLRFVDKLFEAVEEGRSSRHSKSSSDRSRKRELKEVFGDDSEISKESSGVKKRRIPRFEEVEEEPEVIPGPPSESPGMLTKLQIKQMMEAATRQIEERKKQLSFISPPTPQPKTPSSSQPERLPIGNTIQPSQAATFMNDAIEKARKAAELQARIQAQLALKPGLIGNANMVGLANLHAMGIAPPKVELKDQTKPTPLILDEQGRTVDATGKEIELTHRMPTLKANIRAVKREQFKQQLKEKPSEDMESNTFFDPRVSIAPSQRQRRTFKFHDKGKFEKIAQRLRTKAQLEKLQAEISQAARKTGIHTSTRLALIAPKKELKEGDIPEIEWWDSYIIPNGFDLTEENPKREDYFGITNLVEHPAQLNPPVDNDTPVTLGVYLTKKEQKKLRRQTRREAQKELQEKVRLGLMPPPEPKVRISNLMRVLGTEAVQDPTKVEAHVRAQMAKRQKAHEEANAARKLTAEQRKVKKIKKLKEDISQGVHISVYRVRNLSNPAKKFKIEANAGQLYLTGVVVLHKDVNVVVVEGGPKAQKKFKRLMLHRIKWDEQTSNTKGDDDEESDEEAVKKTNKCVLVWEGTAKDRSFGEMKFKQCPTENMAREHFKKHGAEHYWDLALSESVLESTD
B4: 2'-5'-oligoadenylate synthase 1 (Homo sapiens), P00973-2 (parent)
chain: MMDLRNTPAKSLDKFIEDYLLPDTCFRMQINHAIDIICGFLKERCFRGSSYPVCVSKVVKGGSSGKGTTLRGRSDADLVVFLSPLTTFQDQLNRRGEFIQEIRRQLEACQRERAFSVKFEVQAPRWGNPRALSFVLSSLQLGEGVEFDVLPAFDALGQLTGGYKPNPQIYVKLIEECTDLQKEGEFSTCFTELQRDFLKQRPTKLKSLIRLVKHWYQNCKKKLGKLPPQYALELLTVYAWERGSMKTHFNTAQGFRTVLELVINYQQLCIYWTKYYDFKNPIIEKYLRRQLTKPRPVILDPADPTGNLGGGDPKGWRQLAQEAEAWLNYPCFKNWDGSPVSSWILLVRPPASSLPFIPAPLHEA
partner: B2 partner
B5: TERF1-interacting nuclear factor 2 (Homo sapiens), Q9BSI4 (parent)
chain: MATPLVAGPAALRFAAAASWQVVRGRCVEHFPRVLEFLRSLRAVAPGLVRYRHHERLCMGLKAKVVVELILQGRPWAQVLKALNHHFPESGPIVRDPKATKQDLRKILEAQETFYQQVKQLSEAPVDLASKLQELEQEYGEPFLAAMEKLLFEYLCQLEKALPTPQAQQLQDVLSWMQPGVSITSSLAWRQYGVDMGWLLPECSVTDSVNLAEPMEQNPPQQQRLALHNPLPKAKPGTHLPQGPSSRTHPEPLAGRHFNLAPLGRRRVQSQWASTRGGHKERPTVMLFPFRNLGSPTQVISKPESKEEHAIYTADLAMGTRAASTGKSKSPCQTLGGRALKENPVDLPATEQKENCLDCYMDPLRLSLLPPRARKPVCPPSLCSSVITIGDLVLDSDEEENGQGEGKESLENYQKTKFDTLIPTLCEYLPPSGHGAIPVSSCDCRDSSRPL
B6: U4/U6 small nuclear ribonucleoprotein Prp31 (Homo sapiens), Q8WWY3 (parent)
chain: MSLADELLADLEEAAEEEEGGSYGEEEEEPAIEDVQEETQLDLSGDSVKTIAKLWDSKMFAEIMMKIEEYISKQAKASEVMGPVEAAPEYRVIVDANNLTVEIENELNIIHKFIRDKYSKRFPELESLVPNALDYIRTVKELGNSLDKCKNNENLQQILTNATIMVVSVTASTTQGQQLSEEELERLEEACDMALELNASKHRIYEYVESRMSFIAPNLSIIIGASTAAKIMGVAGGLTNLSKMPACNIMLLGAQRKTLSGFSSTSVLPHTGYIYHSDIVQSLPPDLRRKAARLVAAKCTLAARVDSFHESTEGKVGYELKDEIERKFDKWQEPPPVKQVKPLPAPLDGQRKKRGGRRYRKMKERLGLTEIRKQANRMSFGEIEEDAYQEDLGFSLGHLGKSGSGRVRQTQVNEATKARISKTLQRTLQKQSVVYGGKSTIRDRSSGTASSVAFTPLQGLEIVNPQAAEKKVAEANQKYFSSMAEFLKVKGEKSGLMST
partner: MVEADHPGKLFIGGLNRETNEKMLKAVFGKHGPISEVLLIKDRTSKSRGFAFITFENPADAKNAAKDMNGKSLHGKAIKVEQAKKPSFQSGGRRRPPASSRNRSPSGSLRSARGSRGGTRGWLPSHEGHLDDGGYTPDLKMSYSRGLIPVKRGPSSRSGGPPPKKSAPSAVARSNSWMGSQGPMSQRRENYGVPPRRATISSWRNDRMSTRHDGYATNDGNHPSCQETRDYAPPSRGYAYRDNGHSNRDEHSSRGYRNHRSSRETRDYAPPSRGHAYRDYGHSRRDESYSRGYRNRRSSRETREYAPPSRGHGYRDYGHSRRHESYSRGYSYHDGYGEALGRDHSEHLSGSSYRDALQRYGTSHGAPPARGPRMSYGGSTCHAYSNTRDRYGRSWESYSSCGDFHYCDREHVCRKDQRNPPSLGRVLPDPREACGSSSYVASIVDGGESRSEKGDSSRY
B7: Emerin (Homo sapiens), P50402 (parent)
chain: MDNYADLSDTELTTLLRRYNIPHGPVVGSTRRLYEKKIFEYETQRRRLSPPSSSAASSYSFSDLNSTRGDADMYDLPKKEDALLYQSKGYNDDYYEESYFTTRTYGEPESAGPSRAVRQSVTSFPDADAFHHQVHDDDLLSSSEEECKDRERPMYGRDSAYQSITHYRPVSASRSSLDLSYYPTSSSTSFMSSSSSSSSWLTRRAIRPENRAPGAGLGQDRQVPLWGQLLLFLVFVIVLFFIYHFMQAEEGNPF
partner: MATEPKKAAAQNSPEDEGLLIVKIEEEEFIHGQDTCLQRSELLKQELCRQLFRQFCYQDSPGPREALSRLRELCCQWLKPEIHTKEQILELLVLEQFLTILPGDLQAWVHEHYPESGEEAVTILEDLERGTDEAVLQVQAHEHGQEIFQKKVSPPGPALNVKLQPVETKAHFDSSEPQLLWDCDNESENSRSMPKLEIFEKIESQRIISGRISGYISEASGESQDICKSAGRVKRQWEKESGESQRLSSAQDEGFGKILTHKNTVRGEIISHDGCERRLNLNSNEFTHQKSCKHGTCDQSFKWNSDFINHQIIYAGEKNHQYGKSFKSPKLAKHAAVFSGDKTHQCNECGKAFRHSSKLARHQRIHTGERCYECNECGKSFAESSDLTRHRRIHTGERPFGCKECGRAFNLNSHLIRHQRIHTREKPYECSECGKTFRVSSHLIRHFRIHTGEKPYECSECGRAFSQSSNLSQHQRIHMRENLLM

Variants of: B1
Conditions: with kr261_human KRTAP26-1, Q6PEX3

Row | effect of a mutation on the interaction | Variant
1 | disrupting interaction strength | A9D
2 | with no effect | P248L
3 | disrupting interaction strength | R432C
4 | with no effect | P451L

Variants of: B2
Conditions: with tri27_human TRIM27, P14373

Row | effect of a mutation on the interaction | Variant
5 | disrupting interaction strength | W94R

Variants of: B3
Conditions: with psmd3_human PSMD3, O43242
psmd3_human PSMD3, O43242, sequence (O43242 whole entry): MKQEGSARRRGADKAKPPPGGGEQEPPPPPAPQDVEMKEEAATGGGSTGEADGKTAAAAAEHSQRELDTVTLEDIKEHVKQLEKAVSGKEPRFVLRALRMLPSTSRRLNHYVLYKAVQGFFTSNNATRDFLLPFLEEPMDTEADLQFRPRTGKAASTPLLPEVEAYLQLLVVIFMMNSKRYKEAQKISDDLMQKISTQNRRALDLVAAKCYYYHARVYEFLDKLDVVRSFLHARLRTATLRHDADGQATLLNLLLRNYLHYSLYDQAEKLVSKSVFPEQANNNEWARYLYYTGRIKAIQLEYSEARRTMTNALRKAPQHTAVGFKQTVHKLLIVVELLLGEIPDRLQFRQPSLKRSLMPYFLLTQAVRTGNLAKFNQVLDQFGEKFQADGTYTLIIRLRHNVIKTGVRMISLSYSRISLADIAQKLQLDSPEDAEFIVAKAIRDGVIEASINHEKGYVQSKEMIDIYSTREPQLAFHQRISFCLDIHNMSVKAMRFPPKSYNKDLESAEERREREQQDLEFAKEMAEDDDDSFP

Row | effect of a mutation on the interaction | Variant
6 | disrupting interaction strength | P493S
7 | disrupting interaction strength | A489D
8 | disrupting interaction strength | T494M

Variants of: B3
Conditions: with fam9b_human FAM9B

Row | effect of a mutation on the interaction | Variant
9 | with no effect | P493S
10 | with no effect | A489D
11 | disrupting interaction strength | T494M

Variants of: B4
Conditions: with tri27_human TRIM27, P14373

Row | effect of a mutation on the interaction | Variant
12 | with no effect | R242Q

Variants of: B5
Conditions: with acd_human ACD

Row | effect of a mutation on the interaction | Variant
13 | with no effect | E281K
14 | with no effect | G237D
15 | disrupting interaction strength | P236S
16 | with no effect | S245Y

Variants of: B6
Conditions: with RBMY1A1, P0DJD3-2

Row | effect of a mutation on the interaction | Variant
17 | with no effect | L107V

Variants of: B7
Conditions: with zn165_human ZNF165, P49910

Row | effect of a mutation on the interaction | Variant
18 | with no effect | P183T
19 | with no effect | P183H
20 | with no effect | S54F
21 | with no effect | D72V
